According to article PMC4414485:

What was measured:
[1] = target: hERG1a(R56Q).Citrine (human) (UniProt Q12809)
[2] = target: hERG1a(R56Q).Citrine (human) (UniProt Q12809); remark: listed apart in the source

isolated eag domain of hERG fused to CFP (i-eag.CFP) (domain or fragment)
fast deactivation time constant (tau fast) of hERG1a(R56Q) tail currents with co-expressed i-eag in HEK293 cells, whole-cell patch clamp, -120 to -20 mV (slower than hERG1a(R56Q) alone) [1]: 307 ms | fast deactivation time constant (tau fast) of hERG1a(R56Q) tail currents with co-expressed i-eag in hiPSC-CMs, whole-cell patch clamp, -120 to -20 mV (slower than hERG1a(R56Q) alone) [1]: 326 ms | slow deactivation time constant (tau slow) of hERG1a(R56Q) tail currents with co-expressed i-eag in HEK293 cells, whole-cell patch clamp, -120 to -20 mV (slower than hERG1a(R56Q) alone) [1]: 1780 ms | slow deactivation time constant (tau slow) of hERG1a(R56Q) tail currents with co-expressed i-eag in hiPSC-CMs, whole-cell patch clamp, -120 to -20 mV (slower than hERG1a(R56Q) alone) [1]: 2340 ms | V1/2 of steady-state inactivation of hERG R56Q channels with co-expressed i-eag in HEK293 cells (hERG R56Q alone -13.6 mV, WT hERG -32.2 mV) [2]: -24.7 mV
